T1: IL-23R (human, UniProt Q5VWK5 24-629)
T1 sequence (looked up): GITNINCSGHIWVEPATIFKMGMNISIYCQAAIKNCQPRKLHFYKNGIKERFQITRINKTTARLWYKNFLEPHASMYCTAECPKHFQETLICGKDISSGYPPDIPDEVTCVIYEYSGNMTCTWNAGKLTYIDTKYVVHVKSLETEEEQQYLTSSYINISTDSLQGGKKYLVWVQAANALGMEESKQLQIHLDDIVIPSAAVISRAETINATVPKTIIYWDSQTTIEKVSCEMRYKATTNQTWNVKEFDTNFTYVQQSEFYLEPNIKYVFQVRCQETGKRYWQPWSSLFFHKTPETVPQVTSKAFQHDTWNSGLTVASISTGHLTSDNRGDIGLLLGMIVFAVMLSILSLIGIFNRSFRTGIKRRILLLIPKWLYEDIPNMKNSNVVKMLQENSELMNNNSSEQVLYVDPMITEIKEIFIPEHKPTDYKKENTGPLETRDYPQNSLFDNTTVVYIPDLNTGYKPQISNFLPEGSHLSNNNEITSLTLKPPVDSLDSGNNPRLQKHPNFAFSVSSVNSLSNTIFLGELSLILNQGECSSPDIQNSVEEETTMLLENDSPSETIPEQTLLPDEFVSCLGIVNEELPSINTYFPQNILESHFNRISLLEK

B1: SEQ ID NO: 341 (peptide)
peptide: Ac-[Pen]NT[Trp(7-Me)][Cit][Pen][AEF][2Nal][αMeK]K(Ac)N[Aib]G-NH2
modifications: disulfide 1-6
SMILES: CC(=O)NCCCC[C@H](NC(=O)[C@](C)(CCCCN)NC(=O)[C@H](Cc1ccc2ccccc2c1)NC(=O)[C@H](Cc1ccc(OCCN)cc1)NC(=O)[C@H]1NC(=O)[C@H](CCCNC(N)=O)NC(=O)[C@H](Cc2c[nH]c3c(C)cccc23)NC(=O)[C@H]([C@@H](C)O)NC(=O)[C@H](CC(N)=O)NC(=O)[C@@H](NC(C)=O)C(C)(C)SSC1(C)C)C(=O)N[C@@H](CC(N)=O)C(=O)NC(C)(C)C(=O)NCC(N)=O
B2: SEQ ID NO: 342 (peptide)
peptide: Ac-[Pen]NT[Trp(7-Me)][Cit][Pen][AEF][2Nal][αMeK]K(Ac)N[Aib]A-NH2
modifications: disulfide 1-6
SMILES: CC(=O)NCCCC[C@H](NC(=O)[C@](C)(CCCCN)NC(=O)[C@H](Cc1ccc2ccccc2c1)NC(=O)[C@H](Cc1ccc(OCCN)cc1)NC(=O)[C@H]1NC(=O)[C@H](CCCNC(N)=O)NC(=O)[C@H](Cc2c[nH]c3c(C)cccc23)NC(=O)[C@H]([C@@H](C)O)NC(=O)[C@H](CC(N)=O)NC(=O)[C@@H](NC(C)=O)C(C)(C)SSC1(C)C)C(=O)N[C@@H](CC(N)=O)C(=O)NC(C)(C)C(=O)N[C@@H](C)C(N)=O
B3: SEQ ID NO: 319 (peptide)
peptide: XNTXXXXXXKNL
modifications: Ac-[Pen]-N-T-[W(7-Me)]-[Lys(trifluoropropionic)]-[Pen]-Phe[4-(2-aminoethoxy)]-[2-Nal]-[a-MeLys]-[Lys(Ac)]-N-[(D)Leu]-NH2; Pen-Pen disulfide
B4: SEQ ID NO: 276 (peptide)
peptide: XNTXQXXXXKNX
modifications: Ac-[Pen]-N-T-[W(7-Me)]-Q-[Pen]-Phe[4-(2-aminoethoxy)]-[2-Nal]-[DiethylGly]-[Lys(Ac)]-N-[bA]-NH2; Pen-Pen disulfide
B5: SEQ ID NO: 277 (peptide)
peptide: XNTXQXXXXKNX
modifications: Ac-[Pen]-N-T-[W(7-Me)]-Q-[Pen]-Phe[4-(2-aminoethoxy)]-[2-Nal]-[Acbc]-[Lys(Ac)]-N-[bA]-NH2; Pen-Pen disulfide
B6: SEQ ID NO: 340 (peptide)
peptide: Ac-[Pen]NT[Trp(7-Me)][Cit][Pen][AEF][2Nal][αMeK]K(Ac)N[Aib][βAla]-NH2
modifications: disulfide 1-6
SMILES: CC(=O)NCCCC[C@H](NC(=O)[C@](C)(CCCCN)NC(=O)[C@H](Cc1ccc2ccccc2c1)NC(=O)[C@H](Cc1ccc(OCCN)cc1)NC(=O)[C@H]1NC(=O)[C@H](CCCNC(N)=O)NC(=O)[C@H](Cc2c[nH]c3c(C)cccc23)NC(=O)[C@H]([C@@H](C)O)NC(=O)[C@H](CC(N)=O)NC(=O)[C@@H](NC(C)=O)C(C)(C)SSC1(C)C)C(=O)N[C@@H](CC(N)=O)C(=O)NC(C)(C)C(=O)NCCC(N)=O
B7: SEQ ID NO: 265 (peptide)
peptide: Ac-[Pen]NT[Trp(7-Me)][Cit][Pen][AEF][2Nal][αMeK]K(Ac)N[NMeA]-NH2
modifications: disulfide 1-6; not fully specified; printed as Ac-[Pen]-NT-[W(7-Me)]-[Cit]-[Pen]-Phe[4-(2-aminoethoxy)]-[2-Nal]-[a-MeLys]-[Lys(Ac)]-[N-MeAla]-NH2
B8: SEQ ID NO: 320 (peptide)
peptide: XNTXXXXXXKNL
modifications: Ac-[Pen]-N-T-[W(7-Me)]-[Lys(Gly)]-[Pen]-Phe[4-(2-aminoethoxy)]-[2-Nal]-[a-MeLys]-[Lys(Ac)]-N-[(D)Leu]-NH2; Pen-Pen disulfide
B9: SEQ ID NO: 322 (peptide)
peptide: XNTXXXXXXKNL
modifications: Ac-[Pen]-N-T-[W(7-Me)]-[Lys(Aib)]-[Pen]-Phe[4-(2-aminoethoxy)]-[2-Nal]-[a-MeLys]-[Lys(Ac)]-N-[(D)Leu]-NH2; Pen-Pen disulfide
B10: SEQ ID NO: 345 (peptide)
peptide: Ac-[Pen]NT[Trp(7-Me)][Cit][Pen][AEF][2Nal][αMeK]K(Ac)N[Aib][dR]-NH2
modifications: disulfide 1-6
SMILES: CC(=O)NCCCC[C@H](NC(=O)[C@](C)(CCCCN)NC(=O)[C@H](Cc1ccc2ccccc2c1)NC(=O)[C@H](Cc1ccc(OCCN)cc1)NC(=O)[C@H]1NC(=O)[C@H](CCCNC(N)=O)NC(=O)[C@H](Cc2c[nH]c3c(C)cccc23)NC(=O)[C@H]([C@@H](C)O)NC(=O)[C@H](CC(N)=O)NC(=O)[C@@H](NC(C)=O)C(C)(C)SSC1(C)C)C(=O)N[C@@H](CC(N)=O)C(=O)NC(C)(C)C(=O)N[C@H](CCCNC(=N)N)C(N)=O
B11: SEQ ID NO: 346 (peptide)
peptide: Ac-[Pen]NT[Trp(7-Me)][Cit][Pen][AEF][2Nal][αMeK]K(Ac)N[Aib][dF]-NH2
modifications: disulfide 1-6
SMILES: CC(=O)NCCCC[C@H](NC(=O)[C@](C)(CCCCN)NC(=O)[C@H](Cc1ccc2ccccc2c1)NC(=O)[C@H](Cc1ccc(OCCN)cc1)NC(=O)[C@H]1NC(=O)[C@H](CCCNC(N)=O)NC(=O)[C@H](Cc2c[nH]c3c(C)cccc23)NC(=O)[C@H]([C@@H](C)O)NC(=O)[C@H](CC(N)=O)NC(=O)[C@@H](NC(C)=O)C(C)(C)SSC1(C)C)C(=O)N[C@@H](CC(N)=O)C(=O)NC(C)(C)C(=O)N[C@H](Cc1ccccc1)C(N)=O
B12: SEQ ID NO: 274 (peptide)
peptide: XNTXQXXXXKNX
modifications: Ac-[Pen]-N-T-[W(7-Me)]-Q-[Pen]-Phe[4-(2-aminoethoxy)]-[2-Nal]-[Achc]-[Lys(Ac)]-N-[bA]-NH2; Pen-Pen disulfide
B13: SEQ ID NO: 300 (peptide)
peptide: Ac-[Pen]NT[Trp(7-OMe)][Cit][Pen][AEF][2Nal][αMeK]K(Ac)N[dK]-NH2
modifications: disulfide 1-6
SMILES: COc1cccc2c(C[C@@H]3NC(=O)[C@H]([C@@H](C)O)NC(=O)[C@H](CC(N)=O)NC(=O)[C@@H](NC(C)=O)C(C)(C)SSC(C)(C)[C@@H](C(=O)N[C@@H](Cc4ccc(OCCN)cc4)C(=O)N[C@@H](Cc4ccc5ccccc5c4)C(=O)N[C@@](C)(CCCCN)C(=O)N[C@@H](CCCCNC(C)=O)C(=O)N[C@@H](CC(N)=O)C(=O)N[C@H](CCCCN)C(N)=O)NC(=O)[C@H](CCCNC(N)=O)NC3=O)c[nH]c12
B14: SEQ ID NO: 344 (peptide)
peptide: Ac-[Pen]NT[Trp(7-Me)][Cit][Pen][AEF][2Nal][αMeK]K(Ac)N[Aib][dK]-NH2
modifications: disulfide 1-6
SMILES: CC(=O)NCCCC[C@H](NC(=O)[C@](C)(CCCCN)NC(=O)[C@H](Cc1ccc2ccccc2c1)NC(=O)[C@H](Cc1ccc(OCCN)cc1)NC(=O)[C@H]1NC(=O)[C@H](CCCNC(N)=O)NC(=O)[C@H](Cc2c[nH]c3c(C)cccc23)NC(=O)[C@H]([C@@H](C)O)NC(=O)[C@H](CC(N)=O)NC(=O)[C@@H](NC(C)=O)C(C)(C)SSC1(C)C)C(=O)N[C@@H](CC(N)=O)C(=O)NC(C)(C)C(=O)N[C@H](CCCCN)C(N)=O

Numbered stars: 1 amine (or outer) side, 2 acyl side, 3 side chain; on linkers, the order of the positions; unused ones are H or OH. Bridge positions count the residues as written; N and C are the ends. Square brackets hold non-standard residues; d marks the D form. Trp(7-Et) = 7-ethyl-tryptophan, CCc1cccc2c(C[C@H](N[*:1])C(=O)[*:2])c[nH]c12; Trp(7-OMe) = COc1cccc2c(C[C@H](N)C(=O)O)c[nH]c12; His(π-Bom) = N[C@@H](Cc1cncn1COCc1ccccc1)C(=O)O; Trp(7-Me) = Cc1cccc2c(C[C@H](N)C(=O)O)c[nH]c12; 2Nal = N[C@@H](Cc1ccc2ccccc2c1)C(=O)O; AEF = NCCOc1ccc(C[C@H](N)C(=O)O)cc1; Cit = NC(=O)NCCC[C@H](N)C(=O)O; Pen = CC(C)(S)[C@H](N)C(=O)O; αMeK = C[C@](N)(CCCCN)C(=O)O; NMeA = CN[C@@H](C)C(=O)O; Aib = CC(C)(N)C(=O)O; βAla = NCCC(=O)O

The test addresses T1, IL-23R. In words: cell-based or functional assay.
For Ac-[Pen]NT[Trp(7-Me)][Cit][Pen][AEF][2Nal][αMeK]K(Ac)N[dT]-NH2 (disulfide 1-6 (inferred)) [SEQ ID NO: 263], the “pStat3 HTRF (nM) IC50” value was below 1 nM.
For B1 the value was below 1 nM; for B2, below 1 nM; for B3, below 1 nM.
For Ac-[Pen]NT[Trp(7-Et)]K(Ac)[Pen][AEF][2Nal][αMeK]K(Ac)N[dL]-NH2 (disulfide 1-6 (inferred)) [SEQ ID NO: 284] the value was below 1 nM; for B4, below 1 nM.
For B5 the value was below 1 nM; for B6, below 1 nM; for B7, below 1 nM.
For the molecule B8, the “pStat3 HTRF (nM) IC50” value was below 1 nM.
For Ac-[Pen]NT[Trp(7-Me)]K(Ac)[Pen][His(π-Bom)][2Nal][αMeK]K(Ac)N[dL]-NH2 (disulfide 1-6) [SEQ ID NO: 291] the value was above 100 nM; for B9, below 1 nM.
For B10 the value was below 1 nM; for Ac-[Pen]NT[Trp(7-Me)][Cit][Pen][AEF][2Nal][αMeK]K(Ac)NS-NH2 (disulfide 1-6 (inferred)) [SEQ ID NO: 260], below 1 nM.
Take B11: the “pStat3 HTRF (nM) IC50” value is below 1 nM.
For B12 the value was below 1 nM; for B13, above 100 nM; for B14, below 1 nM.

Values taken from US20260116921A1, “PEPTIDE INHIBITORS OF INTERLEUKIN-23 RECEPTOR AND THEIR USE TO TREAT INFLAMMATORY DISEASES” (priority 2018, published 2026).
